# Target: the molecule itself
# Experiment: SDS-PAGE (reductant-free sample buffer) and Western blot with anti-His; recombinant HsATG4B treated with 1 mM or 3 mM H2O2 for 5 min at 25 °C in TBSK buffer (50 mM Tris-HCl, 140 mM NaCl, 30 mM KCl, pH 8.0); high-molecular-weight signal on the blot
protein,measurement,value
"recombinant human ATG4B, His-tagged (His-HsATG4B) (enzyme, UniProt Q9Y4P1 1-393, looked up, human cysteine protease ATG4B, recombinant, bought; printed size with His tag 47 kDa; No catalogue number is printed; source: bought: Abcam) MDAATLTYDTLRFAEFEDFPETSEPVWILGRKYSIFTEKDEILSDVASRLWFTYRKNFPAIGGTGPTSDTGWGCMLRCGQMIFAQALVCRHLGRDWRWTQRKRQPDSYFSVLNAFIDRKDSYYSIHQIAQMGVGEGKSIGQWYGPNTVAQVLKKLAVFDTWSSLAVHIAMDNTVVMEEIRRLCRTSVPCAGATAFPADSDRHCNGFPAGAEVTNRPSPWRPLVLLIPLRLGLTDINEAYVETLKHCFMMPQSLGVIGGKPNSAHYFIGYVGEELIYLDPHTTQPAVEPTDGCFIPDESFHCQHPPCRMSIAELDPSIAVGFFCKTEDDFNDWCQQVKKLSLLGGALPMFELVELQPSHLACPDVLNLSLDSSDVERLERFFDSEDEDFEILSL",binding result,binds

# From paper PMC8698322, “Autophagy Is Involved in the Viability of Overexpressing Thioredoxin o1 Tobacco BY-2 Cells under Oxidative Conditions” (Antioxidants, 2021)
